Measurements from patent US6468985B1, “Retinoblastoma protein-interacting zinc finger proteins” (The Burnham Institute, priority 1994, dated 2002).

What was measured:
wild-type Rb = target: T1, wild-type Rb (Homo sapiens, UniProt P06400); test: binding of GST-RIZ (245-573) to 35S-labeled Rb, immunoprecipitation with anti-RIZ antiserum
T1 construct: Wild-type (wt) full length Rb (A9); made in house; host or cells: in vitro transcription/translation
T1 sequence (P06400 1-928): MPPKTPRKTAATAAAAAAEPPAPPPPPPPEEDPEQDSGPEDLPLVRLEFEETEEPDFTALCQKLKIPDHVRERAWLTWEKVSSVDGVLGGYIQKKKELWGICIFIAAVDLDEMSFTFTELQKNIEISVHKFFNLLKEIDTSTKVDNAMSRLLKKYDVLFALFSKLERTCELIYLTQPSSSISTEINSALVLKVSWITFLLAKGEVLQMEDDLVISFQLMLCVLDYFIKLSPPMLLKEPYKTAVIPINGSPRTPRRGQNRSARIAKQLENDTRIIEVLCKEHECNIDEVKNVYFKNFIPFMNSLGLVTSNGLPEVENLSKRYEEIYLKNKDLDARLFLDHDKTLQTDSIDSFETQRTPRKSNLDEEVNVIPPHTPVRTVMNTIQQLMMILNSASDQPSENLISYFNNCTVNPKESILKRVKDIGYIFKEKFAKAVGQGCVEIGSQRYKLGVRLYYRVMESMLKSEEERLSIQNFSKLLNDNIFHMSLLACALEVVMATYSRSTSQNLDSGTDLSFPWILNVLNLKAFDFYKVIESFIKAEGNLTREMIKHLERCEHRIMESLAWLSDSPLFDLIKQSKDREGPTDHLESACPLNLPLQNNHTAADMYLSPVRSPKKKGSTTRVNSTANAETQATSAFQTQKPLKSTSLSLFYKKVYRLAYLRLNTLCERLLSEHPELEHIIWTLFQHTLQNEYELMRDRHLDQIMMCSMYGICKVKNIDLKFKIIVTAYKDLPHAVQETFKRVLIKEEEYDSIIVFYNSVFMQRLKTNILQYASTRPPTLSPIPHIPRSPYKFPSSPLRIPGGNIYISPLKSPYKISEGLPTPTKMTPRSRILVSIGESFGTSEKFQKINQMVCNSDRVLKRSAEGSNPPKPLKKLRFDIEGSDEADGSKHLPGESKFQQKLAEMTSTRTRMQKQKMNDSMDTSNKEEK
Procedure: The 56 kD Rb fragment that binds to RIZ is a C-terminal fragment containing the Rb pocket binding region and a C-terminal extension. To further define the portion of 56 kD Rb that binds to RIZ, several Rb mutant polypeptides were tested for binding to RIZ. Mutant and full length Rb were cloned and in vitro transcribed/translated as described previously (Huang et al., supra, 1990). H209 is a point mutation resulting in a single amino acid change in Rb that was identified in the small cell lung cancer H209 cell line (American Type Culture Collection (ATCC) #HTB 172). The various Rb forms were tested for binding to glutathionine S-transferase (GST) fused to a fragment of RIZ from amino acid position 245-573 (GST-RIZ (245-573)). This RIZ fragment contains all of the E1A motifs related to binding Rb and was constructed by cloning a Stu I-Hpa I RIZ fragment (nucleotide 795-3068) into vector pBSK+ to make pBSK+SH. An Eco RI fragment was removed from pBSK+SH and ligated into pGEX-KG to produce vector pKG7.1S containing GST-RIZ (245-573).
The binding between purified GST-RIZ (245-573) and the above radiolabeled Rb wild-type and deletion mutants was determined by immunoprecipitation with an anti-RIZ antiserum followed by SDS-PAGE and autoradiography. […]

RIZ = target: T2, RIZ (Rattus norvegicus, UniProt Q63755); test: binding of anti-RIZ antiserum / anti-ce1 antibody to RIZ and RIZ truncation mutants; details: addition of the immunogen
T2 construct: made in house; host or cells: in vitro transcription/translation (rabbit reticulocyte lysate)
T2 sequence (Q63755 245-883): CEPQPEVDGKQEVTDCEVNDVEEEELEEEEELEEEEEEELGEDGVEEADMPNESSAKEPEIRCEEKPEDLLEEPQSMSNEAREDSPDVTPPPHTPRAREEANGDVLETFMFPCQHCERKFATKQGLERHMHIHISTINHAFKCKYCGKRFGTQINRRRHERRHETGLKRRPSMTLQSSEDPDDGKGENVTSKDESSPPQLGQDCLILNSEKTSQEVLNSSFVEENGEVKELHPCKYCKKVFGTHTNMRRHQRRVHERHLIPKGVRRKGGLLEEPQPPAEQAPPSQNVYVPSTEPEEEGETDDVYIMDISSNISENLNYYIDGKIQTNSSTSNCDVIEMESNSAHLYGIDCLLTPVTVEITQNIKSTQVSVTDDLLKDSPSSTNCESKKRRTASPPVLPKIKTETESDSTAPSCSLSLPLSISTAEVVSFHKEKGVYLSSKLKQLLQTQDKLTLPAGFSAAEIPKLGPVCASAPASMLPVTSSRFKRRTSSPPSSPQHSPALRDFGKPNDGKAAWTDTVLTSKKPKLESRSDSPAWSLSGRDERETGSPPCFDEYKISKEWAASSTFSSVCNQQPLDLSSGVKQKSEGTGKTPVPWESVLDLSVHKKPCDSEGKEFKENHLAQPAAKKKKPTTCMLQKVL
Procedure: Anti-RIZ antibodies purified from the E1A affinity column were tested for binding to RIZ and E1A. […] The E1A-affinity purified RIZ antibodies were designated “anti-ce1” for cross reacting E1A antigen.
Anti-ce1 antibodies were tested for binding to various deletion mutants of RIZ and E1A 12S in order to map the location of the ce1 epitope on each molecule.
To evaluate this possibility, an 11 amino acid peptide encompassing residues 310-320 in RIZ (ce1 peptide) [sequence] (SEQ ID NO: 7) and an overlapping 11 amino acid control peptide encompassing residues 304-314 containing the cr2 core motif of RIZ, peptide [sequence] (SEQ ID NO: 6), were synthesized by solid phase peptide synthesis and tested for their ability to block binding between anti-ce1 antibody and RIZ or E1A.

B1: GST-RIZ (245-573): glutathionine S-transferase fused to RIZ fragment a.a. 245-573 containing zinc fingers 1-3 (protein)
chain: CEPQPEVDGKQEVTDCEVNDVEEEELEEEEELEEEEEEELGEDGVEEADMPNESSAKEPEIRCEEKPEDLLEEPQSMSNEAREDSPDVTPPPHTPRAREEANGDVLETFMFPCQHCERKFATKQGLERHMHIHISTINHAFKCKYCGKRFGTQINRRRHERRHETGLKRRPSMTLQSSEDPDDGKGENVTSKDESSPPQLGQDCLILNSEKTSQEVLNSSFVEENGEVKELHPCKYCKKVFGTHTNMRRHQRRVHERHLIPKGVRRKGGLLEEPQPPAEQAPPSQNVYVPSTEPEEEGETDDVYIMDISSNISENLNYYIDGKIQTNSS
modifications: left off: a dimerising Fc or GST
Which “binding to wild-type Rb” value (wild-type Rb) does the source give for B1 here?
Its value is “showed binding”.

What about the “inhibition of anti-RIZ antiserum binding to RIZ (245-883)” value (RIZ) of the same molecule?
Its value is “inhibited”.
